B1: Phage-Presented Peptide 32 (Ph-p32) (peptide)
peptide: DYDY
B2: Phage-Presented Peptide 16 (Ph-p16) (peptide)
peptide: HHTCSLHFP
B3: Phage-Presented Peptide 25 (Ph-p25) (peptide)
peptide: WVFGHGMCK

Target: T1, GRO-β (CXCL2) (UniProt P19875 35-107)
T1 construct: Bought chemokine
T1 sequence (looked up): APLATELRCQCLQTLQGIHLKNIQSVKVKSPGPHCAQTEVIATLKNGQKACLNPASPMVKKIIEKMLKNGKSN
Experiment: micro-array, phage-presented peptide on printed CK
Experimental: (§1) (1) Printing: Chemokine (CK) solution (in water) was serially diluted with Print Reagent (GenTel BioSurfaces USA) to final concentrations of 50 μg and 25 μg/ml. BSA/BSA-Biotin control solutions (in water) were diluted with Print Reagent to 100 μg/ml. Amplified stock of M13 phage control (M13KEgIII Cloning Vector, New England Biolabs, Cat.No.E8101S) was stored in Tris Buffered Saline (TBS; pH7.5, 4° C.) and diluted with Print Reagent to the working titre (10^8 pfu/μl). An automated spotting robot (16 pin print tool, 0.4mm head; BioRobotics, UK) was used to print the CK/BSA control/M13 control, 5 repeats per sample (CK 25 μg/ml and 50 μg/ml; BSA 100 μg/ml; M13 20 μl), on PATH Protein Microarray Slides (GenTel, Prod.No.2-1005/-1025) at […], and 50-70% relative humidity. Printed micro-array slides were stored at Room Temperature (RT) or 4° C. for at least 24 h before use.
(§2) (2) Blocking: Block Buffer (500 μl/partition; PATHblock, GenTel, Prod.No.2-1014) was applied to the slide for 1 hour at room temp (RT). After removal of Block Buffer, the slide was air dried for 25 minutes;
(§3) (11) Analysis: Quantitative analysis of micro-array was performed by the SpotReader program of Niles Scientific (USA) and presented as Relative Fluorescence (RF) as a function of CK concentration. Micro-array readout (Cy3 fluorescence) was quantified to determine the relative binding affinities of a CBP for the CKs and by inference, the specificity of the CBP for binding to a CK.

Binder | Relative Fluorescence Units (RFU) | binding result
B1 | > 10000 | –
B2 | – | binds
B3 | > 15000 | –

Target: T2, IL-8 (CXCL8) (UniProt P10145 28-99, limits assumed)
T2 construct: also called IL-8(72aa); IL-8(77aa)
T2 sequence (looked up): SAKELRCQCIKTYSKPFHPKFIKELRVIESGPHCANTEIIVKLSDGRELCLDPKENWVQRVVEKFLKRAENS
Experiment: micro-array, phage-presented peptide on printed CK
Experimental: as §1, §2, §3

Binder | Relative Fluorescence Units (RFU)
B1 | > 10000
B3 | > 15000

Target: T3, Mig (CXCL9) (UniProt Q07325 23-125)
T3 construct: Bought chemokine
T3 sequence (looked up): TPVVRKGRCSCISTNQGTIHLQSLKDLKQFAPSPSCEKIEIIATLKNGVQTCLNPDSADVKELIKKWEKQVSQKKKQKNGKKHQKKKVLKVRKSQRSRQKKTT
Experiment: micro-array, phage-presented peptide on printed CK
Experimental: as §1, §2, §3

Binder | Relative Fluorescence Units (RFU) | binding result
B1 | > 10000 | –
B2 | – | binds
B3 | > 15000 | –

Target: T4, IP-10 (CXCL10) (UniProt P02778 22-98)
T4 construct: Bought chemokine
T4 sequence (looked up): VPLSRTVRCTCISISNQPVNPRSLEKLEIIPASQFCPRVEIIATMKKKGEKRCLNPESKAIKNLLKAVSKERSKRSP
Experiment: micro-array, phage-presented peptide on printed CK
Experimental: as §1, §2, §3

Binder | Relative Fluorescence Units (RFU)
B3 | > 15000

Target: T5, I-TAC (CXCL11) (UniProt O14625 22-94)
T5 construct: Bought chemokine; also called I-TACK
T5 sequence (looked up): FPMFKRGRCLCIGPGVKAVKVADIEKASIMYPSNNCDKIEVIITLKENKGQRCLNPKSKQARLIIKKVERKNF
Experiment: micro-array, phage-presented peptide on printed CK
Experimental: as §1, §2, §3

Binder | Relative Fluorescence Units (RFU) | binding result
B1 | > 10000 | –
B2 | – | binds

Target: T6, I-309 (CCL1) (UniProt P22362 23-96, limits assumed)
T6 construct: Bought chemokine
T6 sequence (looked up): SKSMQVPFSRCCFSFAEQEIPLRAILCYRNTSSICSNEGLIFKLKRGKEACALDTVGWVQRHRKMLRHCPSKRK
Experiment: micro-array, phage-presented peptide on printed CK
Experimental: as §1, §2, §3

Binder | Relative Fluorescence Units (RFU) | binding result
B1 | > 10000 | –
B2 | – | binds

Target: T7, MCP-1 (CCL2) (UniProt P13500 24-99)
T7 construct: Bought chemokine
Experiment: micro-array, phage-presented peptide on printed CK
Experimental: as §1, §2, §3

T7 sequence (P13500 24-99 limits assumed): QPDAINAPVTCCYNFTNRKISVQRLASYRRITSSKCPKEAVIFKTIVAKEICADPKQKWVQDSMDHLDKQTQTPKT

Binder | binding result | Relative Fluorescence Units (RFU)
B2 | binds | –
B3 | – | > 15000

Target: T8, MCP-2 (CCL8) (UniProt P80075 24-99)
T8 construct: Bought chemokine
T8 sequence (looked up): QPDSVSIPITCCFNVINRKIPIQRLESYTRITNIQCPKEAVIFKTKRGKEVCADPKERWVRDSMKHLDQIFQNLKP
Experiment: micro-array, phage-presented peptide on printed CK
Experimental: as §1, §2, §3

Binder | Relative Fluorescence Units (RFU) | binding result
B1 | > 10000 | –
B2 | – | binds
B3 | > 15000 | –

Target: T9, MCP-4 (CCL13) (UniProt Q99616 24-98)
T9 construct: Bought chemokine
Experiment: micro-array, phage-presented peptide on printed CK
Experimental: as §1, §2, §3

T9 sequence (Q99616 24-98 limits assumed): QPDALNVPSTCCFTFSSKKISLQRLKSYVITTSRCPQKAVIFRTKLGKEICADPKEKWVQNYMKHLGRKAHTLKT

Binder | Relative Fluorescence Units (RFU)
B1 | > 10000
B2 | > 15000
B3 | > 15000

Target: T10, RANTES (CCL5) (UniProt P13501 24-91)
T10 construct: Bought chemokine
T10 sequence (looked up): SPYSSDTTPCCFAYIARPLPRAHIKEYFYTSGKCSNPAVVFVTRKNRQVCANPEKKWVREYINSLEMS
Experiment: micro-array, phage-presented peptide on printed CK
Experimental: as §1, §2, §3

Binder | Relative Fluorescence Units (RFU) | binding result
B1 | > 10000 | –
B2 | > 15000 | –
B3 | – | binds

Target: T11, Eotaxin (CCL11) (UniProt P51671 24-97)
T11 construct: Bought chemokine
Experiment: micro-array, phage-presented peptide on printed CK
Experimental: as §1, §2, §3

T11 sequence (P51671 24-97 limits assumed): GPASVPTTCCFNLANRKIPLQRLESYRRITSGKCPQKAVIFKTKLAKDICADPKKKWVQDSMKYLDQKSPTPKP

Binder | Relative Fluorescence Units (RFU) | binding result
B1 | > 10000 | –
B2 | – | binds
B3 | – | binds

Target: T12, Eotaxin 2 (CCL24) (UniProt O00175 27-104, limits assumed)
T12 construct: Bought chemokine
T12 sequence (looked up): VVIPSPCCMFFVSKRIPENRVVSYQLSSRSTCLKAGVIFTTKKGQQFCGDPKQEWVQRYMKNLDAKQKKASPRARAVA
Experiment: micro-array, phage-presented peptide on printed CK
Experimental: as §1, §2, §3

Binder | Relative Fluorescence Units (RFU) | binding result
B1 | > 10000 | –
B2 | – | binds

Target: T13, Eotaxin 3 (CCL26) (UniProt Q9Y258 24-94)
T13 construct: Bought chemokine
T13 sequence (looked up): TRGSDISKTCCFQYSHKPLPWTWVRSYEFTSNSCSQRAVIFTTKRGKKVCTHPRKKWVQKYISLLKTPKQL
Experiment: micro-array, phage-presented peptide on printed CK
Experimental: as §1, §2, §3

Binder | Relative Fluorescence Units (RFU) | binding result
B1 | > 10000 | –
B2 | – | binds
B3 | – | binds

Target: T14, MDC(69aa) (CCL22) (UniProt O00626 25-93)
T14 construct: Bought chemokine
T14 sequence (looked up): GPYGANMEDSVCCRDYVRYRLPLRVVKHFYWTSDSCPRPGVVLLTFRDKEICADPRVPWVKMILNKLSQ
Experiment: micro-array, phage-presented peptide on printed CK
Experimental: as §1, §2, §3

Binder | binding result
B2 | binds

Target: T15, SDF-1α (CXCL12) (UniProt P48061-2 22-89)
T15 construct: Alpha isoform of CXCL12; also called SDFα
Experiment: micro-array, phage-presented peptide on printed CK
Experimental: as §1, §2, §3

T15 sequence (P48061 22-89 limits assumed): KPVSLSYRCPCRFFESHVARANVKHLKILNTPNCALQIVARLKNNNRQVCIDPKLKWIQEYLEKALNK

Binder | binding result
B1 | binds

Target: T16, SDF-1β (CXCL12) (UniProt P48061 22-93)
T16 construct: Beta isoform of CXCL12; also called SDFβ
Experiment: micro-array, phage-presented peptide on printed CK
Experimental: as §1, §2, §3

T16 sequence (P48061 22-93 limits assumed): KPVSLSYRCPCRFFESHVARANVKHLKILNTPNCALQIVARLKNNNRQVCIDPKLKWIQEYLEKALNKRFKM

Binder | binding result
B1 | binds

Target: T17, BCA-1 (CXCL13) (UniProt O43927 23-109)
T17 construct: Bought chemokine
T17 sequence (looked up): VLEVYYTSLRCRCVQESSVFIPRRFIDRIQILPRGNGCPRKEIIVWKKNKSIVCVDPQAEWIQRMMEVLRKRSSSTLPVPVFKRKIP
Experiment: micro-array, phage-presented peptide on printed CK
Experimental: as §1, §2, §3

Binder | binding result
B1 | binds
B2 | binds
B3 | binds

Target: T18, Exodus-2 (CCL21) (UniProt O00585 24-134)
T18 construct: Bought chemokine
T18 sequence (looked up): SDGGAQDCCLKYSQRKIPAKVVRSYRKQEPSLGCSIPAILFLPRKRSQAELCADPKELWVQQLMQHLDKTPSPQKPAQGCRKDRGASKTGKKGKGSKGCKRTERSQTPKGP
Experiment: micro-array, phage-presented peptide on printed CK
Experimental: as §1, §2, §3

Binder | binding result
B1 | binds
B3 | binds

Target: T19, TECK (CCL25) (UniProt O15444 24-150)
T19 construct: Bought chemokine
T19 sequence (looked up): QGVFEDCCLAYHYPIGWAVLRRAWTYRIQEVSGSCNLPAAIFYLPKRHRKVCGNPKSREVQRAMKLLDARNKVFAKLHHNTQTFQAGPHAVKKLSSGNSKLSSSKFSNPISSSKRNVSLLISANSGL
Experiment: micro-array, phage-presented peptide on printed CK
Experimental: as §1, §2, §3

Binder | binding result
B1 | binds
B2 | binds
B3 | binds

Target: T20, Lymphotactin (XCL-1) (UniProt P47992 23-114, limits assumed)
T20 construct: Bought chemokine
T20 sequence (looked up): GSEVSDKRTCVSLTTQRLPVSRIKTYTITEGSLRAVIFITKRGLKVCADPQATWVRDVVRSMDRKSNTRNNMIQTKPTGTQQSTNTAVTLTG
Experiment: micro-array, phage-presented peptide on printed CK
Experimental: as §1, §2, §3

Binder | binding result
B1 | binds
B2 | binds
B3 | binds

From patent publication US20100227824A1 (SYMTHERA CANADA, published 2010)
